{"source": "paper PMC7736808", "experiment_in_all_cases": "MST", "settings_in_all_cases": "5-bromo-dC at every C, MST at 22 C, 5 nM labeled DNA, 0.5 mg/ml BSA, 0.05% Tween 20, 5 mM HEPES pH 7.5, 20 mM NaCl (Table 2), 20 mM HEPES pH 8.0, 100 mM NaCl (Table 4)", "key": {"[1]": {"molecular_target": "T1, GH5*:α3NADAR1-PW K41G;S42G;R43G;K53A;R95A;del65;D66K;L67K;Q68E;K70N;L71R;S72V;I73L;R74Y;R75S;S91P;F94W (/ human ADAR1 α3N and β-wing residues) (UniProt P02259)", "T1 sequence": "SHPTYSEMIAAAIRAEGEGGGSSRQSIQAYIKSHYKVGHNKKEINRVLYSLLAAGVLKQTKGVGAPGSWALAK"}, "[2]": {"molecular_target": "T2, hZαADAR1 (human) (UniProt P55265)", "T2 sequence": "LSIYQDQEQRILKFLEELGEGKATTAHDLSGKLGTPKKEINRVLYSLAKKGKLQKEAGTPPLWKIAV"}, "[3]": {"molecular_target": "vvZαE3L (UniProt P21605)"}, "[4]": {"molecular_target": "T2, hZαADAR1 (human)", "remark": "listed apart in the source"}}, "data": [{"sequence": "TCGCGCGCGCGCGCGCGCGCGCGCGCGCGCG (double strand) [Z-DNA, [d(5'-Cy5-T(Br5CG)15)]2]", "values": [{"measurement": "Kd", "setting": "[1]", "value": 1.8, "unit": "µM"}, {"measurement": "Kd", "setting": "[2]", "value": 0.6, "unit": "µM"}, {"measurement": "Kd", "setting": "[3]", "value": 2, "unit": "µM"}, {"measurement": "Kd", "setting": "[4]", "value": 0.018, "unit": "µM"}]}]}
